Assay results taken from US9962507B2, “Droplet delivery device for delivery of fluids to the pulmonary system and methods of use” (PNEUMA RESPIRATORY, INC., priority 2016, dated 2018).

Columns and labels:
Assay type in all cases: physicochemical
[1] = Anderson Cascade Impactor testing of Albuterol sulfate aerosol from the droplet delivery device (Example B); settings: Albuterol 0.5%, 28.3 lpm
[2] = Gravimetric analysis of delivered dose per actuation; settings: average of five doses (actuations)
Description: Gravimetric analysis was performed by weighing the Enbrel solution filled ampule before and after dosing. The average of five doses (actuations) were analyzed with an average of 4.25 mg+/−0.15 mg. The total delivered dose of Enbrel per actuation is therefore […] per actuation.
Gravimetric analysis was performed by weighing the Insulin solution filled ampule before and after dosing. The average of five doses (actuations) were analyzed with an average of 5.01 mg+/−0.53 mg. The total delivered dose of Insulin per actuation is therefore 34.8 mcg per actuation.

[3] = Size exclusion chromatography (SEC) stability after aerosol generation with test device
Text: Alternately, to determine the stability of active agent after droplet generation, the generated stream of droplets including the active agent may be collected and […] may be employed to monitor for any changes in large molecule aggregation and protein fragment content. Soluble protein aggregates and protein fragment content may be calculated by comparing respective peak area under the SEC-HPLC curve of dispensed protein solutions with controls (solutions remaining in the device reservoir). Drug solutions for testing include Enbrel, (ENBREL® single-use prefilled syringes in 25 mg (0.51 mL of a 50 mg/mL solution of etanercept), and insulin, (Humalog, 200 units/ml, 3 ml […] is performed with a […] 3 μm SEC-2000 LC column 300×7.8 mm, SecurityGuard cartridge kit and SecurityGuard cartridges GFC-2000, 4×3 mm ID. Fifty microliters of Enbrel from the syringe (ENBREL® single-use prefilled syringes in 25 mg/0.51 mL of a 50 mg/mL solution of etanercept) is diluted (4:1) (4 parts, 200 mcl of the mobile phase buffer solution to 1 part, 50 mcl Enbrel from syringe). Fifty microliter of the diluted Enbrel is injected and separation was performed at a flow rate of 1.0 ml/min. The mobile phase buffer system included a PHOS. BUFF. SALINE. […] UV detection is performed at 280 nm. […] Aerosol collection and SEC is performed in a similar fashion as for the Enbrel analysis and aerosol collection. […] Fifty microliters of the collected aerosol spray is injected onto the SEC column for analysis, while 50 mcl of the […] insulin solution is injected onto the SEC column for control samples.

[4] = Gel electrophoresis of active agent after droplet generation
Text: To determine the stability of active agent after droplet generation, the generated stream of droplets including the active agent is collected and the molecular weight of the active agent is verified using gel electrophoresis.

[5] = Enbrel control (not aerosolized)

| droplets of an average diameter of less than about 4 μm ([1]; 10 actuations) | Fine ([1]; fraction summary table) | Throat ([1]; fraction summary table) | Substance | average solution mass per dose (actuation), ampule weighed before and after dosing [2] [mg] | Peak Area %, Peak 3, Avg. ([3]; Insulin aerosolized, average of S1 and S2) [%] | Peak Area %, Peak 3 ([3]; Insulin control (not aerosolized)) [%] | ejected dose that forms a fragment ([3]; Insulin, fragment elutes at ~25 minutes) [%] | Peak Area %, Peak 4 [3, 5] [%] | Peak Area %, Peak 5 [3, 5] [%] | dose that leads to formation of molecular fragments ([3]; Enbrel, fragments with elution times of 13 and 25 minutes) [%] | change in electrophoretic mobility (molecular weight) of post-aerosol active agent versus control [4] |
| --- | --- | --- | --- | --- | --- | --- | --- | --- | --- | --- | --- |
| over 70% | 3.5 | 4.6 | Albuterol sulfate | – | – | – | – | – | – | – | – |
| – | – | – | Insulin: insulin, Humalog, 200 units/ml, 3 ml kwikpens | 5.01 | 2.4905 | 0 | 2.5 | – | – | – | – |
| – | – | – | etanercept [Enbrel] | 4.25 | – | – | – | 0 | 0 | 4.6 | negligible change |
